Patent US9173950B2, “Vitamin D-ghrelin conjugates” (Extend Biosciences, Inc., priority 2012, dated 2015)
Read-outs that look alike come from different tables or passages of the source.

Assays:
[1] = molecular target: T1, GHS-R (Homo sapiens, UniProt Q92847); assay: Cell-based ghrelin receptor agonist assay, calcium flux (FLIPR) in GHS-R-expressing CHO-K1 cells; settings: in the presence of 10% serum that contains DBP
T1 construct: host or cells: CHO-K1
Protocol: The test compounds were added to GHS-R-expressing CHO-K1 cell cultures. […] The activity was measured by a calcium flux-based assay developed by GenScript USA Inc. for the FLIPR™ (Fluorescence Imaging Plate Reader) high-throughput cellular screening instrument.
CHO-K1 cells expressing GHS-R were cultured in Ham's F12 supplemented with 10% fetal bovine serum, 500 mg/mL G418 and were passaged in order to maintain optimal cell health. The cells were seeded in a 384-well black-wall, clear-bottom plate at a density of 20,000 cells per well in 20 μL of growth medium 18 hours prior to the assay and maintained at 37° C./5% CO2. […] The intracellular calcium levels in the cells were measured for 20 seconds using the FLIPR™ instrument prior to addition of the test articles. […] Changes in intracellular calcium levels were measured for an additional 100 sec (21 to 120 seconds).
The average value of the 20 second reading (1 to 20 seconds) was calculated as the baseline reading and the relative fluorescent units (ΔRFU) intensity values were calculated with the maximal fluorescent units (21 to 120 seconds) subtracting the average value of baseline reading. […]
The % activation of compound was calculated using the following equation: % activation=(ΔRFUCompound−ΔRFUBackground)/(ΔRFUAgonist control−ΔRFUBackground)}*100% activation was then plotted as a function of the log of the cumulative doses of compounds. […]

[2] = Pharmacokinetics of rGhrelin and rGhrelin-carrier conjugate after IV injection, plasma ELISA; type: in vivo, Sprague Dawley rats; settings: 0.1 mg/kg IV
Protocol: Pharmacokinetics of rGhrelin (SEQ ID NO:6) or the rGhrelin-carrier conjugate was studied in Sprague Dawley rats. Briefly, 0.1 mg/kg of each molecule was injected separately into the rats by intravenous (IV) injection. Samples of plasma were collected at 30 mins, 60 mins, 120 mins, 240 mins, 360 mins, 24 hrs and 48 hrs. Samples were analyzed using a commercial ELISA kit validated for analyzing rGhrelin from rat plasma (Millipore, Cat. #EZRGRT-91K). […] Thus, ghrelin in a conjugated form is a useful therapeutic for the treatment of ghrelin-responsive diseases such as cachexia, anorexia and frailty in the elderly.

[3] = human, in vivo; cited from earlier work
[4] = Pharmacokinetics of FGF21 and FGF21-carrier conjugate after SC injection, plasma ELISA; type: in vivo, Sprague Dawley rats; settings: 0.1 mg/kg SC
Protocol: Pharmacokinetics of FGF21 (SEQ ID NO:3) or the FGF21-carrier conjugate was studied in Sprague Dawley rats. Briefly, 0.1 mg/kg of each molecule was injected separately into the rats by SC injection. Samples of plasma were collected at 30 mins, 60 mins, 120 mins, 240 mins, 360 mins, 24 hrs and 48 hrs. Samples were analyzed using a commercial ELISA kit validated for FGF21 (Millipore, Cat. #EZHFGF21-19K).

T1 sequence (Q92847 whole entry, species assumed): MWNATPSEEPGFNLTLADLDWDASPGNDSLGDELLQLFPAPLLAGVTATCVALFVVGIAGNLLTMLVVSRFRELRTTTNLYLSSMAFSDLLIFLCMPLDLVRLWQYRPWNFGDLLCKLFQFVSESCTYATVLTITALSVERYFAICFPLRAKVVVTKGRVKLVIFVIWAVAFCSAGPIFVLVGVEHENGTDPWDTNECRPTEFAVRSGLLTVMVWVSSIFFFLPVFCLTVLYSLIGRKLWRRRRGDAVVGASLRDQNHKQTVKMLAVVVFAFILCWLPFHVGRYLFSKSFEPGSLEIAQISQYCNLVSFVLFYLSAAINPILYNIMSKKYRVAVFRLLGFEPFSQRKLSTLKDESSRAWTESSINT

rGhrelin-carrier conjugate: Rat ghrelin peptide (SEQ ID NO:6) conjugated via free cysteine to the Vitamin D3-PEG-maleimide carrier of Example 1 (GSSFLSPEHQKAQQRKESKKPPAKLQPRC; Vitamin D3-PEG-maleimide carrier)
interference in receptor binding and activation [1]: No interference | half-life (WinNonLin) ([2]; Sprague Dawley rats, plasma): 8 h | improvement in half-life vs rGhrelin ([2]; rats): 22 fold

CCCCCCCC(=O)OC[C@H](NC(=O)[C@H](CO)NC(=O)CN)C(=O)N[C@@H](Cc1ccccc1)C(=O)N[C@@H](CC(C)C)C(=O)N[C@@H](CO)C(=O)N1CCC[C@H]1C(=O)N[C@@H](CCC(=O)O)C(=O)N[C@@H](Cc1cnc[nH]1)C(=O)N[C@@H](CCC(N)=O)C(=O)N[C@@H](CCCNC(=N)N)C(=O)N[C@H](C(=O)N[C@@H](CCC(N)=O)C(=O)N[C@@H](CCC(N)=O)C(=O)N[C@@H](CCCNC(=N)N)C(=O)N[C@@H](CCCCN)C(=O)N[C@@H](CCC(=O)O)C(=O)N[C@@H](CO)C(=O)N[C@@H](CCCCN)C(=O)N[C@@H](CCCCN)C(=O)N1CCC[C@H]1C(=O)N1CCC[C@H]1C(=O)N[C@@H](C)C(=O)N[C@@H](CCCCN)C(=O)N[C@@H](CC(C)C)C(=O)N[C@@H](CCC(N)=O)C(=O)N1CCC[C@H]1C(=O)N[C@@H](CCCNC(=N)N)C(=O)O)C(C)C [ghrelin]
half-life [3]: 11 min

CCCCCCCC(=O)OC[C@H](NC(=O)[C@H](CO)NC(=O)CN)C(=O)N[C@@H](Cc1ccccc1)C(=O)N[C@@H](CC(C)C)C(=O)N[C@@H](CO)C(=O)N1CCC[C@H]1C(=O)N[C@@H](CCC(=O)O)C(=O)N[C@@H](Cc1c[nH]cn1)C(=O)N[C@@H](CCC(N)=O)C(=O)N[C@@H](CCCCN)C(=O)N[C@@H](C)C(=O)N[C@@H](CCC(N)=O)C(=O)N[C@@H](CCC(N)=O)C(=O)N[C@@H](CCCNC(=N)N)C(=O)N[C@@H](CCCCN)C(=O)N[C@@H](CCC(=O)O)C(=O)N[C@@H](CO)C(=O)N[C@@H](CCCCN)C(=O)N[C@@H](CCCCN)C(=O)N1CCC[C@H]1C(=O)N1CCC[C@H]1C(=O)N[C@@H](C)C(=O)N[C@@H](CCCCN)C(=O)N[C@@H](CC(C)C)C(=O)N[C@@H](CCC(N)=O)C(=O)N1CCC[C@H]1C(=O)N[C@@H](CCCNC(=N)N)C(=O)N[C@@H](CS)C(=O)O [rGhrelin, reference compound]
half-life ([2]; rat, in vivo, Sprague Dawley rats, plasma, read-out: half-life (WinNonLin) (converted)): 22.2 min

B1: FGF21-carrier conjugate: Modified FGF21 (SEQ ID NO:3) conjugated through its free cysteine to the Vitamin D3-PEG-maleimide carrier of Example 1 (conjugate)
chain: MGSHHHHHHSSGENLYFQGHPCPDSSPLLQFGGQVRQRYLYTDDAQQTEAHLEIREDGTVGGAADQSPESLLQLKALKPGVIQILGVKTSRFLCQRPDGALYGSLHFDPEACSFRELLLEDGYNVYQSEAHGLPLHLPGNKSPHRDPAPRGPARFLPLPGLPPALPEPPGILAPQPPDVGSSDPLSMVEPSQGRSPSYASP
modifications: Vitamin D3-PEG-maleimide carrier
area under the curve (AUC) ([4]; Sprague Dawley rats, plasma): 1.04798 µg·h/mL | average Cmax ([4]; Sprague Dawley rats, plasma): 143.526 ng/mL | increase in bioavailability (ratio of average Cmax, conjugate vs FGF21) ([4]; rats): 380 fold | increase in drug exposure (ratio of mean AUC, conjugate vs FGF21) ([4]; rats): 675 fold
